Data set [1] concerns the target Human serum albumin (HSA) (Homo sapiens, UniProt P02768 P02768:25-609). As to the kind of experiment: surface acoustic wave sensor; 5'-thiol aptamer. The settings on record: label: 5'-biotin, 5'-amino or 5'-thiol. The method, then:
(§1) (11) A hemoglobin sample having been diluted into 11.6 μM with HBS-P(+MgCl2) was introduced through the passage 15 to the sensing element 3. Then, the amount of phase change occurring after 5 minutes of reaction was measured. Similarly, measurement was performed with employing human serum albumin (HSA) as a sample. Further, as for the hemoglobin sample, measurement was performed on samples of various concentrations.

Data set [2] has as its target Hemoglobin (Hb), full length (Homo sapiens, UniProt P69905;P68871 P69905:2-142,P68871:2-147). As to the kind of experiment: surface acoustic wave sensor phase change; 11.6 uM Hb; signal rises with Hb concentration; HBS-P + MgCl2. The note with it: tags: Abcam ab77858; chain copies: 2,2; label: 5'-biotin, 5'-amino or 5'-thiol. As to the method:
as §1

Sequence of Hemoglobin (Hb), full length (P69905 2-142, chain 1 of 2): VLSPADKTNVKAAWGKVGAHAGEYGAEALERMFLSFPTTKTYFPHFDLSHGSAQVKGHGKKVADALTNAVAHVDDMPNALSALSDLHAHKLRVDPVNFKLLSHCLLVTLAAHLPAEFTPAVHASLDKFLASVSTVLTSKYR
Sequence of Hemoglobin (Hb), full length (P68871 2-147, chain 2 of 2): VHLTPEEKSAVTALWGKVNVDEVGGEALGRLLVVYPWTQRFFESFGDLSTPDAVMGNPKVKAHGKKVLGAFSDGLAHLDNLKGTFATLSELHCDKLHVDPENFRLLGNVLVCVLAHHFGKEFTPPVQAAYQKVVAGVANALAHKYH
Sequence of Human serum albumin (HSA) (P02768 25-609, one chain of several): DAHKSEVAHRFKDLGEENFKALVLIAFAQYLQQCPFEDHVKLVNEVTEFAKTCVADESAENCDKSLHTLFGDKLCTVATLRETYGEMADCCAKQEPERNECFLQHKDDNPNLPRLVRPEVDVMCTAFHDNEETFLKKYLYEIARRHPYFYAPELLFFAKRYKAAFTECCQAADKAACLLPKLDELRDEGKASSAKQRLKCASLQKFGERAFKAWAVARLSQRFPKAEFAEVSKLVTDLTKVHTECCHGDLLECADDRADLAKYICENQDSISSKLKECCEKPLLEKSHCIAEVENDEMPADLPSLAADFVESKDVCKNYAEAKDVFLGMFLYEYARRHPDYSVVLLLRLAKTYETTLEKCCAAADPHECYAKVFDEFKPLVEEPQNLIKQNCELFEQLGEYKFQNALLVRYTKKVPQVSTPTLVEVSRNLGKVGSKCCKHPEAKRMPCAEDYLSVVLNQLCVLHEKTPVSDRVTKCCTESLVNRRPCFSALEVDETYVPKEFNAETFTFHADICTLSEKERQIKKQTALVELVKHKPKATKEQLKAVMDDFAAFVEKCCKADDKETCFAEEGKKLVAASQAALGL

Turning to CGUAUUACGGCAUUAUUAGGACCAAUGCUGAGUACG (ssRNA) [6R_28 partial (36-mer)], the binding result in data set [1] is “no binding”; in data set [2], “binds”.

The values are drawn from patent US20170176465, “RNA APTAMER AND SENSOR EMPLOYING SAME” (Kyocera Corporation, published 2017).
